This note sets out measurements from the DeepSol protein solubility set.

The series in a line: soluble on expression in E. coli; label from the status in PepcDB or PDB records.
Turning to “MGSDKIHHHHHHMRVLVVGLGNMGQSHALAHHAADGVEIIGLVNRSSRDLPGALQGYPMIQTVEEGLALSPDLVVIATYSDTHADLACQAMRAGAHVFVEKPLATTVADAKGVVETARETGQKLVVGYILRHHPSWMRLIEEARALGGPYVFRMNLNQQSTGAEWATHKALMQTTSPIVDCGVHYVDVWCQITDARPVAVHGMGLRLSDEIAPEMYNYGQFQVFFDDGSVGWYEAGWGPMMSEVAFFVKDVISPNGAVSITEADKAGSADIDGHTKVGGVLVHRPGDDQLIEFEGEPGHQELCDAEQAFMRRAIAEDLDLSRHMEDAVRSLAICLAADESIRTGQRVTL”, the “soluble on expression in E. coli” value is reported as “not soluble”.
For “MSFMPAIVGPIAINSISGGVVNFGDSFYLSPKSSSKSALGSGAGNTGDFLLLNNAVNATNYIDPDVNDQDMVGNGLEHHHHHH” the value was “not soluble”; for “MGSDKIHHHHHHMTGHYSKTEHQYILLTSESASFDHYSVYRDPQLPQIFSHNFVQLHDTFPLERLLNFLPSVPKLLDANYLHLKASPQHVFPLGLKQSLVKSGFVVEDELLYDMKLSDWKGQMGHPLTAWGTAKSLSDGSSIMKIYDSIYIGEAIAEQKLKRKYPFYEADIIILVVCYSDQAQKVPIGCGELFIDHQEKTAKIEEVAILDQFQRKGYGSILVKEMLSIAKSLGMEAAYLVAASTDGATQFYEKLTFKKYERVHTVFHYFLT”, “not soluble”.
For “MLRVAVSAALRTVSVRALSNASVQQRVITPILLSAQKPSFQIRQYSAKAPLTKKTLEERIVLVLSLYDKIDAKKLTMDSDFSKDLGLDSLDHVEVVMAMEEEFGFEIPDGDADRFKTPRDIFQYIADKEDVFE” the value was “not soluble”.
For “MGSDKIHHHHHHMEAVERVNLLGLDGAALSELVGQWGGKPFRARQLQRWVHQRGADSFDAMTDLARDFRAQLARDCVIEALPVNTEQRSSDGTRKWLFDVGQGNAIETVFIPEDDRGTLCISSQAGCVVNCRFCSTGHQGFNRNLRASEIIGQLWWAKRVLEAAADTARLPGGKAGEDTRVISNVVMMGMGEPLLNYDQVLPALRLMLDDNAYGLSRRRVTVSTSGVVPMMDRLSQDCPVALAVSLHAPNDALRDELVPLNKKYPLNALLAACERYLAHAPRDFITFEYCMLDGINDTDQHARELIQLARQVRCKLNLIPFNPFPASGLKRSPSARVRVFAQRLMDAGIVTTVRKTRGDDIDAACGQLAGEVRDRTRITERNATRTIPIQQVHA” the value was “not soluble”; for “MSLDFAMLPPEVNSTRMYSGPGAGSLWAAAAAWDQVSAELQSAAETYRSVIASLTGWQWLGPSSVRMGAAVTPYVEWLTTTAAQARQTATQITAAATGFEQAFAMTVPPPAIMANRAQVLSLIATNFFGQNTAAIAALETQYAEMWEQDATAMYDYAATSAAARTLTPFTSPQQDTNSAGLPAQSAEVSRATANAGAADGNWLGNLLEEIGILLLPIAPELTPFFLEAGEIVNAIPFPSIVGDEFCLLDGLLAWYATIGSINNINSMGTGIIGAEKNLGILPELGSAAAAAAPPPADIAPAFLAPLTSMAKSLSDGALRGPGEVSAAMRGAGTIGQMSVPPAWKAPAVTTVRAFDATPMTTLPGGDAPAAGVPGLPGMPASGAGRAGVVPRYGVRLTVMTRPLSGEGHHHHHH”, “soluble”.
On to “MGSDKIHHHHHHMKTLLGIIAGKAAQSILTKLGRGSTYPGRLALACDKDILKDLSKDYDIVVVTGTNGKTLTTALTVGILKEAFGEIITNPSGANMITGITSTFLAAKKGKSERQIAVLEIDEASLPRITTYLKPSLFVYTNIFRDQMDRYGEIYTTYQMIVDGARNAPKATILANGDSPIFSSKDIVNPVQYYGFDTAKHAPQLAHYNTEGILCPKCEHILQYRLNTYANLGDFVCLNCQFQRPTLDYQLTELTAITHQSSEFVIDGQNYKINVGGLYNIYNALAAVSVAEFFGVSPEKIKAGFNKSKAVFGRQETFTVGDKSCTLILIKNPVGASQALEMIQLADYPFSLSVLLNANYADGIDTSWIWDANFELITQMPITEINAGGVRHSEIARRLRVTGFDDTKIKQAEKLEQIIETIEKQEAKHAYILATYTAMLEFRSLLADRHVVEKEMI”, for which the “soluble on expression in E. coli” value is on record as “not soluble”.
For “MGNAGESKKSNSDSAKGEEKASGSLTISGSSAMQPLVLAAAEKFMEENPDADIQVQAGGSGTGLSQVSEGAVQIGNSDVFAEEKEGIDAKALVDHQVAVVGMAAAVNPDAGVKDISKDELKKIFTGKIKNWKELGGKDQKITLVNRPDSSGTRATFVKYALDGAEPAEGITEDSSNTVKKIIADTPGAIGYLAFSYLTDDKVTALSIDGVKPEAKNVATGEYPIWAYQHSYTKGEATGLAKEFLDYLKSEDIQKSIVTDQGYIPVTDMKVTRDANGKQSLEHHHHHH” the value was “not soluble”; for “MITLEQKLEQYKHTYVQLKGELKWKTSDSRTGMMIAAMYAGSDKLFDLGRFLEISSYIKNQVGMFSYLKSYHRFVVAATLDIHFTDYKEAFRKFLDLYEQLVTGGFSRSIFTYLAAAVLLTEENEQHGAHIQRSMQVYKRMKKDHLFLTSTNDYPLAVLLAGQSEHVETLMDRVERLYQKLATAGLRKGNDLQFLSHILSLKKDVREELLVAKCTNIWNLLKQEKVKVKQMHYPAIGLLALLEDGEKEIHSIRAFIEKLQGDKLFRWHTDTNILIAIQLFVSQKGEESKATNTGLQTMIEVLIQAQQAAMMATIAASSAATSSASSSS”, “not soluble”; for “MICLDCDDLFDTWRLQARWLLSHEIDPSQVSWKSPDAADLFGSEEQYPEQSGPFQARVPLELLQLLQSTSRYRGEQRWSLLYEVLWRVTHGDRTAMMAGDKLGSELHRRLKAVRREAHHLHAFLRFVALPPADNDAAIMRPQYVAWHEPAHDILHSASEHFIGRMGQHRWMIATPQDGVYYDGKQLIHERRCPEAWQTMARQVEDPHGELWLTYYSHIFNPARLNPKVMEGHFPSRFWKNLPE”, “not soluble”.
For “MGSDKIHHHHHHNDDDDKYYYPTNFENLSLPNDTIIAKGEDLTLKPTLNLINPKIYSWKIDGKEVSNEVNYTFSTSVGGKHEIIFEAQDSKGNTDKAQITVDVFAYYGGFYVINEGWAGHDPASVNYYKDGKWNFNIVESLGQTGTVGVIQDSYMYIVAKDAPYLTQIELANFNITKQLSTEIEEQLDYGQANSFCTINETTGILTASRGAYKINLNPLSIGNMLPQLNSESANGNGCKDILKSGDYVFVNNMDTIKIYKSSDLSFVKKLTALMKTGFAQTKDGNIWAANGQSLIKIDPKTLDETTVELPDNINVFYNQWAYTPTGLCASTTENALYIVNTTVVPGAYGDSYYGKNIYKYNTESKIAQEFFKAPSKIQSIYGAGIQVNPQNGDVYLIYTEDGYGTHYLNTNIYVADGQSGTQKQIIDYTGKYWFPSSIVFK” the value was “not soluble”; for “MAKKVLIISSSPRKGGNSDMLCDEFMKGVLETGNEVEKIFLKEKVIHPCTGCSVCSMYGKPCPQKDDAAGIVEKMIAADVIVMATPVYFYTMCGQMKIMIDRCCARYTEITNKEFYFIIAAAENDKGMMERTIDGFRGFLDCLENPQEKGVIYGIGAWKVGEIKDTPYMQEAYEMGKMV”, “not soluble”; for “MGSDKIHHHHHHMAFTNNVMIVRHGLLAKLVKLWKENRLLEEIDRLPIELSPRKSKVRGRCCVHKERAVWKYKTLPLLGFDMQDEEDELTPLSEYAKRALFRSENKKENIMCVVDEACSSCVSVNYEITNLCRGCVARSCYMNCPKDAIRFKKNGQAEIDHETCISCGKCHQSCPYHAIVYIPIPCEEVCPVKAISKDKYGVEHIDESKCIYCGKCVNACPFGAIFEISQVFDILQRLRNKEQMVAIVAPSILAQFSAPKEKVYGAIKSLGFEEVVEVAQGAMETTRHEAEELIEKLKEGQPFMTTSCCPSYVQLAEKHIPDLKKYISSTGSPMYYTARIVKEKYPDAKIVFVGPCVAKRKEVKLDPCVDFTLTFEEVGSVLEGLGIKIEEAQPFSVLFNAVREAHGFAQSGGVINAVKVYLKDENVNAVQVANLTKKNVALLRAYAKTGKAPAQFIEVMACEGGCVTGPCTHADKTAGQKQLIKELTKF”, “not soluble”.
To “MASSKIVPLYQSMLNDLIRQIESGELVENAKLPSEQKLGEKYDVSRITVRRALAELENKDYIYKKQGQGSFVKNKEDIDLGIHYLDVRKAIENMNAVPEIRLEAFKLIVDGSESDVRKVMEINSDVYLYYLRYMVYADHRPVFHEQVYLPFERFPRIFNSEIVNNDLMPFLVKKYGLKASFFSHTQPALITKSNRKEFDLNVGDPMIYMQTRGIEEKEIIYYRKAAVVGNLIMYIVG” belongs “not soluble”.
For the sequence “YNPLYSIENATSRRDTVLQNMVAAGKISQKQANEAKKVGMGNRISDTYVAKTDDYQYPSYFDAVISEASSVYGISEKDIVNNGY”, the “soluble on expression in E. coli” value is on record as “not soluble”.
To “MDPAEVEFLAEKEMVKIIPNFSLDKIYLIGGDLGPFNPGLPVEVPVWLALNLKQRQKCRIVPPEWMDTDKLEDIREQERKLDTFTPIPNPYYMELTKLLLNHAADNIPKADEIRTLVKDIWDTRMAKLRLSADSFISQQEAHAQLDNLTLMEINTTRSFLLDSLNYMYKLRSNLQPGRSKDY” belongs “not soluble”.
With “MSLSGDDFSVPSKNSESTLFDSVEGDGAMMEEGVKSRPRQKKTQACLASKHVQEAPRLEPANEEHNVETAEDSEIRYLSADSGDADDSDADLGSAVKQLQEFIPNIKDRATSTIKRMYRDDLERFKEFKAQGVAIKFGKFSVKENKQLEKNVEDFLALTGIESADKLLYTDRYPEEKSVITNLKRRYSFRLHIGRNIARPWKLIYYRAKKMFDVNNYKGRYSEGDTEKLKMYHSLLGNDWKTIGEMVARSSLSVALKFSQISSQRNRGAWSKSETRKLIKAVEEVILKKMSPQELKEVDSKLQENPESCLSIVREKLYKGISWVEVEAKVQTRNWMQCKSKWTEILTKRMTNGRRIYYGMNALRAKVSLIERLYEINVEDTNEIDWEDLASAIGDVPPSYVQTKFSRLKAVYVPFWQKKTFPEIIDYLYETTLPLLKEKLEKMMEKKGTKIQTPAAPKQVFPFRDIFYYEDDSEGHHHHHH”, the “soluble on expression in E. coli” value is “not soluble”.
As for “MSLSQPIKLGIITDRVGAAKPYAEPVLQGAQVAAKELNASGGVLGRPIELLVEDDQGRPDLSATAARKMVDSGVAFILSISWTSATQQAQSVTVETGTPHLAPSNSGDTLTTQIANPNFWQTGPLASSQVSTLLAYARSKSFKRVAIIGDNTGLGQLMTQSFKAGIEAAKIQVVSEEVVPRGANSADAQIQRVRASNPDAIFLTGILAPENTLILRAYRLLGLKAPLLGNFSFSNIQYASVAKGLLDGLVFIDAFDPTKPQVQRFIATYTKAAGTAPDNINAYGYDGVMLVADAIRRAGGTDKLKVRDAMQATKGFVGVLGAQGASYGFANGKRTGFDGDGLVVRIYEGDRQGKVQFTGTREGHHHHHH”, the “soluble on expression in E. coli” value is “soluble”.
For “MMKPNIDFKRLKAYVQANGSYSLVVKGDSIEVHFSPNFPEAIPHLPDNLPVEHIMYGKVENGIVYFYRFETISSFGTTYNDLTDDDPIMEWLKYI” the value was “not soluble”; for “MLTITQALVDQIVAHARQDHPDEACGVVAGPEGSGRPERFIPMLNAARSPTFYEFDSGDLLKLYREMDDRDEEPVIIYHSHTATEAYPSRTDISYANEPGAHYVLVSTADADDAGPFQFRSFQIVAGEVTEEEVKVVEAYLEHHHHHH”, “soluble”.
